Experimental data taken from PMC8984176, “Tuftsin: A Natural Molecule Against SARS-CoV-2 Infection” (Frontiers in Molecular Biosciences, 2022).

What was measured:
[1] = biological target: recombinant human NRP1 protein (human) (UniProt O14786); experiment: SPR; Biacore T200; ACE2 or NRP1 amine-coupled on a CM5 chip (about 10,000 RU); tuftsin flowed at gradient concentrations; 25°C, 30 µl/min; 1×PBS, 0.05% Tween 20, 5% dimethyl sulfoxide, pH 7.4; steady state affinity model
[2] = biological target: recombinant human ACE2 protein (human) (UniProt Q9BYF1); experiment: as above
recombinant human ACE2 protein (human), sequence (Q9BYF1 18-740): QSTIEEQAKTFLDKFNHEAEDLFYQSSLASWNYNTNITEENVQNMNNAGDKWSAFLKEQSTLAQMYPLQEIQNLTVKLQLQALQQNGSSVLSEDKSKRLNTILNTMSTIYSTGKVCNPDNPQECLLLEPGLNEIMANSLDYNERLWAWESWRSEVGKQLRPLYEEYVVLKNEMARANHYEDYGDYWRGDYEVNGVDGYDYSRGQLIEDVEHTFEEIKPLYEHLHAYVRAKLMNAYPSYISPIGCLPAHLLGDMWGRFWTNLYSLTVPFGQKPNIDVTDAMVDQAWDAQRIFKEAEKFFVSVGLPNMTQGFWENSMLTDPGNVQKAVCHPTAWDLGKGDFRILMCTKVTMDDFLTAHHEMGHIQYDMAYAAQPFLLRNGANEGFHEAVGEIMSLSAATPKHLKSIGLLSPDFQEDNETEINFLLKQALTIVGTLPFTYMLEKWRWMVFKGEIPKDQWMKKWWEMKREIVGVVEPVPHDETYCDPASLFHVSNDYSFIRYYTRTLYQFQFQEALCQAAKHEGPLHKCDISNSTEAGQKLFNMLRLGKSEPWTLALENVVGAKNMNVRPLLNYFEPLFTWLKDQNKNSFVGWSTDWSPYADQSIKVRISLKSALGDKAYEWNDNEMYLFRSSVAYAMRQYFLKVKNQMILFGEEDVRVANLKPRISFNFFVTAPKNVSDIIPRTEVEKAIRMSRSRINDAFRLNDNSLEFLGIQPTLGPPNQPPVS

Substance: tuftsin (peptide)
- Kd [1]: 10.7 µM
- Kd [2]: 460 µM
